# According to the supplement of paper PMC12764529:
# ± gives the half width of the 95% confidence interval.
# Assay: folding stability dG unfold from chymotrypsin proteolysis; higher = more stable
# Method: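 Folding stability of de novo designed mini-proteins (<80 aa, no Cys; designed by TrROS, TrMRF, ProteinMPNN and the joint model) was measured by cDNA display proteolysis with trypsin and chymotrypsin. Each protease was used at 11 concentrations in a threefold dilution series plus a no-protease condition. K50 was inferred by Bayesian fitting of sequencing counts, and dG unfold was derived against a sequence-predicted unfolded-state K50 (Tsuboyama et al. method). Sequences shown include variable-length N-terminal GS-type padding (SAGGSAGG...) inside a display construct carrying a PA tag. Rows were kept only if the AF2 dimer inter-PAE was >15, to exclude likely homo-oligomers.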
row,Sequence,folding stability dG unfold
1,SDLQWEFPVKKPKDQAEQAVEKAKKEFPGFKEVDDIDVERNPDNYRIKMRIRDDKMPPEVADKLRKALQDSA [r9_195_TrROS],-0.454 ± 0.46 kcal/mol
2,SAGGSMTIDDLKGMPVKEIAKRLGPGYEVNVDPNHGTLTLQHPNYQVTINVSPKDGYVKITEVTPHSAGGSA [r2_470_TrROS],-0.808 ± 0.32 kcal/mol
3,SAGGSAGGSALLEEAGALAAARGWDVEVSPGPVVTVRSPAGREVTITREGDELTVTERELPGDRSAGGSAGG [r6_523_JUSTAS],0.466 ± 0.18 kcal/mol
4,SAGGMMRTVTEPLSPEELEELRKEGWTVLGTEPGKVTVRVPVVPPLSPEEVAQARAAGLSEAEAAAARSAGG [r19_115_JUSTAS],0.587 ± 0.14 kcal/mol
5,SAGGSAGGSAGGAMDLPPSREAEIKLPNGETIRIFRPPDGSITLEFYDKGGKKTKIIPNSAGGSAGGSAGGS [r10_150_JUSTAS],-0.124 ± 0.17 kcal/mol
6,SAGGSSLDDPSLLPGVTLTVTLPETGEVLRVPSSEVVSGPLSEAAARVRAEVAAAHPGRPWEVRAESAGGSA [r2_392_JUSTAS],-0.728 ± 0.42 kcal/mol
7,SAGGSAGGSAGGMDEPVSLPVRKPILSPGSPEEAEARAAELKAPGVEVDAVPRDAAGRLESAGGSAGGSAGG [r11_703_JUSTAS],0.764 ± 0.037 kcal/mol
8,SAGGSAGGSAGGSSSSSGTTLVPVTITTETFLNDDTPVTTVTTVLKTLAPDETLADLLASAGGSAGGSAGGS [r4_283_JUSTAS],-0.292 ± 0.11 kcal/mol
9,SAGMTPDETVNILVSPDDSPEKVAEIIARHGPLTVTLPGSTREFTSEEEIRALYEQHPEDQVINVTVLSAGG [r19_95_JUSTAS],-0.0129 ± 0.21 kcal/mol
10,SAGGSAGGSADEFVVVADLPEGGEARLLVLPLPDGSYLVAEAEAERHGDRTVLHVKVTPAESAGGSAGGSAG [r3_281_TrMRF],0.595 ± 0.11 kcal/mol
11,SAGGSAGGSAGGSMEVVETEEPGPGEERIRIVRFKEKTIVTRTPPDGVPTSEELPISELSAGGSAGGSAGGS [r10_1075_JUSTAS],0.0261 ± 0.2 kcal/mol
12,SAGGSAGGSAGGPLLALFDPVPGRVVVVGLRPLPEDSYELDPYVLELDPTTGEAKVRKASAGGSAGGSAGGS [r10_1041_TrMRF],-0.547 ± 0.42 kcal/mol
13,SAGGSAGGSAGGGKVTVYTDPKGGVVITTTETPDSITATVVDPSGKTTTVTVPPGAPLLSAGGSAGGSAGGS [r10_976_JUSTAS],0.243 ± 0.18 kcal/mol
14,SAGGSAGGSADPAFEALARAEGVPVEVTREGDTLVVTARRPDPAGREVVEEFRVPVPPELLESAGGSAGGSA [r18_27_JUSTAS],-0.174 ± 0.14 kcal/mol
15,SAGGSAGGSAGGPALAEELARKLPPGARVRVRVERDADGNLTITVEVEPAPPVEVVEEESAGGSAGGSAGGS [r10_385_TrROS_Hall],0.366 ± 0.044 kcal/mol
16,SAGGSAPKIYSVEEKELPDNYRLIVFKADKSDPEFIEEIAELLPKEKVEPLSKSEDGYYVVRLPLESAGGSA [r15_386_TrMRF],0.0639 ± 0.23 kcal/mol
17,SAMEELAKKLKELFPNLEIVSIEEEEVEVEGKKRKVLRIKIKNKNGELLEIEFETPEDKEIAELLKKLLSAG [r14_143_TrROS_Hall],5.53 ± 0.15 kcal/mol
18,SAGGSAGGSAGGSPSTRTPITVEVKSPTALSRFTYDTGLSPAEIAAPFAAGGYTVTFVSSAGGSAGGSAGGS [r10_540_JUSTAS],-0.127 ± 0.22 kcal/mol
19,SAGGSAGGSAGGSKIIRIKAKPNEKKEIKIDGKWYKLYADKDNPDRVYIERPDGTIDPASAGGSAGGSAGGS [r4_488_TrMRF],0.685 ± 0.14 kcal/mol
20,SAGGSAGGSKMKKITIEVPTEEERKALEEAIKKGEPEVEITTKNGKKIKIKKIEIKEIKIEKKSAGGSAGGS [r12_334_TrROS_Hall],1.58 ± 0.14 kcal/mol

# Assay: folding stability dG unfold (combined trypsin and chymotrypsin); higher = more stable
# Method in brief: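 Only designs with AlphaFold2 dimer inter-PAE above 15 were retained; each was a mini-protein under 80 residues with no cysteine, in a PA-tagged cDNA display construct. After digestion with trypsin and chymotrypsin and sequencing, K50 was inferred by Bayesian fitting of counts, and unfolding free energy was derived per protease or combined against a sequence-predicted unfolded-state K50 and a shared folded-state K50.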
row,Sequence,folding stability dG unfold
1,SDLQWEFPVKKPKDQAEQAVEKAKKEFPGFKEVDDIDVERNPDNYRIKMRIRDDKMPPEVADKLRKALQDSA [r9_195_TrROS],< -1 kcal/mol
2,SAGGSMTIDDLKGMPVKEIAKRLGPGYEVNVDPNHGTLTLQHPNYQVTINVSPKDGYVKITEVTPHSAGGSA [r2_470_TrROS],< -1 kcal/mol
3,SAGGSAGGSALLEEAGALAAARGWDVEVSPGPVVTVRSPAGREVTITREGDELTVTERELPGDRSAGGSAGG [r6_523_JUSTAS],-0.308 ± 0.35 kcal/mol
4,SAGGMMRTVTEPLSPEELEELRKEGWTVLGTEPGKVTVRVPVVPPLSPEEVAQARAAGLSEAEAAAARSAGG [r19_115_JUSTAS],0.0214 ± 0.28 kcal/mol
5,SAGGSAGGSAGGAMDLPPSREAEIKLPNGETIRIFRPPDGSITLEFYDKGGKKTKIIPNSAGGSAGGSAGGS [r10_150_JUSTAS],< -1 kcal/mol
6,SAGGSSLDDPSLLPGVTLTVTLPETGEVLRVPSSEVVSGPLSEAAARVRAEVAAAHPGRPWEVRAESAGGSA [r2_392_JUSTAS],< -1 kcal/mol
7,SAGGSAGGSAGGMDEPVSLPVRKPILSPGSPEEAEARAAELKAPGVEVDAVPRDAAGRLESAGGSAGGSAGG [r11_703_JUSTAS],0.126 ± 0.13 kcal/mol
8,SAGGSAGGSAGGSSSSSGTTLVPVTITTETFLNDDTPVTTVTTVLKTLAPDETLADLLASAGGSAGGSAGGS [r4_283_JUSTAS],-0.519 ± 0.26 kcal/mol
9,SAGMTPDETVNILVSPDDSPEKVAEIIARHGPLTVTLPGSTREFTSEEEIRALYEQHPEDQVINVTVLSAGG [r19_95_JUSTAS],-0.447 ± 0.28 kcal/mol
10,SAGGSAGGSADEFVVVADLPEGGEARLLVLPLPDGSYLVAEAEAERHGDRTVLHVKVTPAESAGGSAGGSAG [r3_281_TrMRF],-0.0917 ± 0.14 kcal/mol
11,SAGGSAGGSAGGSMEVVETEEPGPGEERIRIVRFKEKTIVTRTPPDGVPTSEELPISELSAGGSAGGSAGGS [r10_1075_JUSTAS],-0.247 ± 0.2 kcal/mol
12,SAGGSAGGSAGGPLLALFDPVPGRVVVVGLRPLPEDSYELDPYVLELDPTTGEAKVRKASAGGSAGGSAGGS [r10_1041_TrMRF],-0.852 ± 0.59 kcal/mol
13,SAGGSAGGSAGGGKVTVYTDPKGGVVITTTETPDSITATVVDPSGKTTTVTVPPGAPLLSAGGSAGGSAGGS [r10_976_JUSTAS],-0.183 ± 0.38 kcal/mol
14,SAGGSAGGSADPAFEALARAEGVPVEVTREGDTLVVTARRPDPAGREVVEEFRVPVPPELLESAGGSAGGSA [r18_27_JUSTAS],< -1 kcal/mol
15,SAGGSAGGSAGGPALAEELARKLPPGARVRVRVERDADGNLTITVEVEPAPPVEVVEEESAGGSAGGSAGGS [r10_385_TrROS_Hall],-0.06 ± 0.23 kcal/mol
16,SAGGSAPKIYSVEEKELPDNYRLIVFKADKSDPEFIEEIAELLPKEKVEPLSKSEDGYYVVRLPLESAGGSA [r15_386_TrMRF],-0.0414 ± 0.26 kcal/mol
17,SAMEELAKKLKELFPNLEIVSIEEEEVEVEGKKRKVLRIKIKNKNGELLEIEFETPEDKEIAELLKKLLSAG [r14_143_TrROS_Hall],> 6 kcal/mol
18,SAGGSAGGSAGGSPSTRTPITVEVKSPTALSRFTYDTGLSPAEIAAPFAAGGYTVTFVSSAGGSAGGSAGGS [r10_540_JUSTAS],-0.538 ± 0.16 kcal/mol
19,SAGGSAGGSAGGSKIIRIKAKPNEKKEIKIDGKWYKLYADKDNPDRVYIERPDGTIDPASAGGSAGGSAGGS [r4_488_TrMRF],0.26 ± 0.13 kcal/mol
20,SAGGSAGGSKMKKITIEVPTEEERKALEEAIKKGEPEVEITTKNGKKIKIKKIEIKEIKIEKKSAGGSAGGS [r12_334_TrROS_Hall],0.758 ± 0.42 kcal/mol
